Target: BSG-S variant E92K (Ok(a-) variant) (human)
Assay: SPR

## PfRh5 (purified, SPR analyte) (from UniProt Q8IFM5 25-526) (ligand)
  fold lower affinity than the BSG reference sequence (equilibrium): 2 fold

— article PMC3245779
